Experimental data reported in US20030143192A1.

Molecular target: human CCR3 (human) (UniProt P51677)
Experiment: cell-based or functional assay

Chain of human CCR3 (human) (P51677 whole entry): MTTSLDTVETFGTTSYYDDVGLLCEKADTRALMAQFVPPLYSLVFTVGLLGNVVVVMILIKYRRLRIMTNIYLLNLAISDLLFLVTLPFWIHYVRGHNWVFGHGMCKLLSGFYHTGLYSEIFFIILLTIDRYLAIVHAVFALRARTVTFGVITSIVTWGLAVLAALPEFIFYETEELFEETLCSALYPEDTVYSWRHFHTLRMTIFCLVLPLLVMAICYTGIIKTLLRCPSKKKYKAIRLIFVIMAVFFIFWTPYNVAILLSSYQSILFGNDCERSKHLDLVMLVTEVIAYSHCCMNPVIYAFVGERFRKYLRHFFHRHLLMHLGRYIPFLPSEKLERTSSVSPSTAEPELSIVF

Work on “aminooxypentane (AOP)-RANTES (from UniProt P13501 24-91) (ligand)” yielded a reduction of 25 nM eotaxin-induced Ca^2+ flux in HOS-CCR3 cells by 100 nM antagonist of 35%.
